The target in the test is murine CIZ1 C-terminal fragment C181 (terminal 181 amino-acids) (mouse). In words: SEC-MALS.

A word on the stoichiometry N: it is a count of units in the complex or per binding partner. “murine CIZ1 C-terminal fragment C181 (terminal 181 amino-acids) (domain or fragment)” returned a stoichiometry N of 2.
